Results on one substance are retold here after paper PMC2651774.

The target of this assay is GST-CR3 (HAdV-5 E1A residues 139–204 fused to GST) (human adenovirus type 5 (HAdV-5)) (UniProt P03255). Put plainly: pull-down.
Chain of GST-CR3 (HAdV-5 E1A residues 139–204 fused to GST) (human adenovirus type 5 (HAdV-5)) (P03255 139-204): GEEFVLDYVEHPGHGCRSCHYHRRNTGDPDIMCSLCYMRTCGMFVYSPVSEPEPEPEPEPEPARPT

Chain of Full-length, purified FLAG-tagged CBP (CREB-binding protein), Q92793 1-2442 (natural protein) (Q92793 whole entry): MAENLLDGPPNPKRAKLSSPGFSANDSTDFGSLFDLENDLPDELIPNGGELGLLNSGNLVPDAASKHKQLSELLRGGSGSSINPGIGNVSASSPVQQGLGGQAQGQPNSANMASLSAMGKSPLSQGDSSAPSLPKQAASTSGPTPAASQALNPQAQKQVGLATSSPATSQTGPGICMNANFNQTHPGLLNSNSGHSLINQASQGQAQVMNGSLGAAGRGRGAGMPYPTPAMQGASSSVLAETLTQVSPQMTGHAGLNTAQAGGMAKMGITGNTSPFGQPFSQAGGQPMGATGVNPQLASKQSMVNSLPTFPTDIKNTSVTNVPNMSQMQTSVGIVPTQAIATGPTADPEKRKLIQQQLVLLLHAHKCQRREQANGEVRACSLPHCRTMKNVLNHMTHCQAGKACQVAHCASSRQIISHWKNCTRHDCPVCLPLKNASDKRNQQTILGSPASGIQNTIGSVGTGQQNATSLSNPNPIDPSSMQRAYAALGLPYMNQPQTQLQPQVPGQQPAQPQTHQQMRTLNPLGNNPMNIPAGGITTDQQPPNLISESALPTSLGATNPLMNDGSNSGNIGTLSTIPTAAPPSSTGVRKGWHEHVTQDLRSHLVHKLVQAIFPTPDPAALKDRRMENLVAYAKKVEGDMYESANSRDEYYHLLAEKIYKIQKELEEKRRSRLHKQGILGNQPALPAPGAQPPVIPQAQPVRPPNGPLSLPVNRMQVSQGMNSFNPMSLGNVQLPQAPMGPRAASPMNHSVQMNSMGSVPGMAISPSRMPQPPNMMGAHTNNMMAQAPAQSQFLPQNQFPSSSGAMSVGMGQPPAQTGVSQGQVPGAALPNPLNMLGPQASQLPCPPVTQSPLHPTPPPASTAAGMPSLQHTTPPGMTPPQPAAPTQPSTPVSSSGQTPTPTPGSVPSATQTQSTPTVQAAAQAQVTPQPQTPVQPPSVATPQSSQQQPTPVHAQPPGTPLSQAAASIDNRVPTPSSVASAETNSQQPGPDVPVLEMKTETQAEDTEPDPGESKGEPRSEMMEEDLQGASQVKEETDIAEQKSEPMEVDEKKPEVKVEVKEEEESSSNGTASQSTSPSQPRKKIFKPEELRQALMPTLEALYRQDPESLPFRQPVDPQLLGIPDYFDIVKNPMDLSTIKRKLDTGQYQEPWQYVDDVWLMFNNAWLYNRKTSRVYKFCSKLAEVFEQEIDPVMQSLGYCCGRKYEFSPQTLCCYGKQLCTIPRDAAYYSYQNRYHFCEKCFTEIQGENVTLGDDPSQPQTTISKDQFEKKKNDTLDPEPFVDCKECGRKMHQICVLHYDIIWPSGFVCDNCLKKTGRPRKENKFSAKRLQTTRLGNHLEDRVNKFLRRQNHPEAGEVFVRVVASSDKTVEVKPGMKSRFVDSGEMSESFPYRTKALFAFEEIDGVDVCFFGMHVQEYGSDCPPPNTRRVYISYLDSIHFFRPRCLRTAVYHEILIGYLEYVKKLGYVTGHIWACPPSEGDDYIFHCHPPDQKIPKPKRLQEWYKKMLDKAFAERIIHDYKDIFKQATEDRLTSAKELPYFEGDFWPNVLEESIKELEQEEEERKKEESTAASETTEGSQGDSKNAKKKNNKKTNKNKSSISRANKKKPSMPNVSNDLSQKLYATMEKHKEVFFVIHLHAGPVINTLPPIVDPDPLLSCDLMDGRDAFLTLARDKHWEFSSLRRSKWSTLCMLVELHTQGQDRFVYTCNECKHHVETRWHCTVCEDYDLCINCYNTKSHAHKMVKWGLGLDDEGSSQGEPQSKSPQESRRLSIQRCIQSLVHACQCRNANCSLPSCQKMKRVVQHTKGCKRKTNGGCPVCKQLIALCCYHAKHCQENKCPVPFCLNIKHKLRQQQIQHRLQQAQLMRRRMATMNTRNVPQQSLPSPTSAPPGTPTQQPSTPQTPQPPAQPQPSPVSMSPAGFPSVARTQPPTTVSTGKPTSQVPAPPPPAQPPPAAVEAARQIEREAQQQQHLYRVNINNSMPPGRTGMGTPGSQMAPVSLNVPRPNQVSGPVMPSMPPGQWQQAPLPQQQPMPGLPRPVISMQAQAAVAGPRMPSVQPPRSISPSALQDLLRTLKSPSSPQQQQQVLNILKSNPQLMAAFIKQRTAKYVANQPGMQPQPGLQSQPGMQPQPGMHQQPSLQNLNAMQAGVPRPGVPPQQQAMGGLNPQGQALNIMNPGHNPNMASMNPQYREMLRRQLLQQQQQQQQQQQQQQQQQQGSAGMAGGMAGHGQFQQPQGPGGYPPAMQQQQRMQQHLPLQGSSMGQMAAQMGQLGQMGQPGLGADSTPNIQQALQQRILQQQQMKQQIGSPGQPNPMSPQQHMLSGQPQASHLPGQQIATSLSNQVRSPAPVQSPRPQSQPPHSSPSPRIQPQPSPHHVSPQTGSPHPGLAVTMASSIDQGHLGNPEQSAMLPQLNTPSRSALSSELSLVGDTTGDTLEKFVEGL

As for “Full-length, purified FLAG-tagged CBP (CREB-binding protein), Q92793 1-2442 (natural protein)”, the reduction of the interaction on addition of HeLa total cellular extract was determined as 50%.
